Values of other authors, collected in paper PMC12071684.

Biological target: von Willebrand factor (Homo sapiens) (UniProt P04275)

Kd: 20 nM
Substance: ADAMTS13 (from UniProt Q76LX8)
